Here are results for one substance from publication PMC4498383.

For this test, the target named is apolipoprotein E on the surface of very low-density lipoproteins (human) (UniProt P02649). The test is described as follows: AFM-based force spectroscopy; DENV C covalently attached to the AFM tip; VLDL adsorbed on freshly cleaved mica; TEE-KCl buffer pH 7.4 (20 mM Tris-HCl, 100 mM KCl, 1 mM EDTA, 1 mM EGTA); loading rate 4 nN/s; with or without rabbit anti-human APOE antibody (1 or 100 ug/L) or an isotype-matched control antibody.
Chain of UniProt P02649 (P02649 19-317): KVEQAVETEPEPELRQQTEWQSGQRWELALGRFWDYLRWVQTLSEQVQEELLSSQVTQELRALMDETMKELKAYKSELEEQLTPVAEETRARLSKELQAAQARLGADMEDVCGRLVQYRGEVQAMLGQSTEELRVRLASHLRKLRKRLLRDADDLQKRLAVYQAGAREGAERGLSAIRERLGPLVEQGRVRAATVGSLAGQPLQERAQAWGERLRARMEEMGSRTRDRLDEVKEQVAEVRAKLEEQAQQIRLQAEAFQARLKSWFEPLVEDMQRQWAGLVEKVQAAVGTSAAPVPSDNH

With “Dengue virus capsid (C) protein (natural protein)”, the rupture force, 1st Gaussian peak (DENV C-VLDL, no antibody) is 29.7 pN and the rupture force, 2nd Gaussian peak (DENV C-VLDL, no antibody) stood at 52.1 pN.
